Test results: the supplement of paper PMC12636428

system: Saccharomyces cerevisiae; test: transcriptional activation domain activity (GFP:mCherry ratio, weighted mean of sorted bins, harmonized to initial dataset scale) (arbitrary fluorescence ratio units); higher = stronger transcriptional activation; conditions: beta-estradiol 1 µM; induction time 4 h
Experimental: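 53-aa protein tiles (fungal proteins plus yeast TF control tiles) fused C-terminally to a DBD-estrogen-binding domain-mCherry synthetic TF, integrated in S. cerevisiae (URA3 locus) with a GFP reporter. Cells were induced with 1 uM beta-estradiol for 4 h at 30 C, FACS-sorted into 8 bins by GFP:mCherry ratio and barcodes sequenced. Activity is the read-weighted mean bin fluorescence (GFP:mCherry), averaged over barcodes (median 12); tiles under 50 reads were discarded. New active-learning values were harmonized by linear fit onto the scale of the initial (Hummel et al.) dataset. The assay saturates at low and high signal.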

| Sequence | transcriptional activation domain activity |
| --- | --- |
| AEEEEDAEDEVVEEKIPAKRGRKPRGEKIEEVSSPAAAAPVRGKKAAAAAAKP | 24200 |
| FLCIFFLSLFFYTFSISYLYVWCLPPPPRRQTCLPTLTFISLPFVSALFLSFG | 59100 |
| VIYRIDKDELTTGMLLVRNNLVELMAASTGPAAHLRVLVVDLVAPSFRSIPRG | 44400 |
| MAFKLSTAEKVYLALRLTLLTPFHILTSLIRSFILSLSRGLPPRLFWVCAVLR | 49500 |
| WIPFTLSIIVVEIPYLLFFSTSLLCGIYWTAGLSNTPDAVGYFYLMIFFFIFW | 61600 |
| NIIALFLVTNQLTTCSVLPLCMGLFKVFDGFVSEGAVLFGSIFAFFSVLVHGY | 61300 |
| REGHLFSCIYIMYCQILFRKVGWSSVFDCAFHVLLAMSAAGNFLVVGAIRCKC | 37300 |
| AQEEFRTYIQEHLVAEQVIAADESSKDDHTIIQHFGRAPHVLWLLLVLMAIWL | 78200 |
| LCLPFFLSLLPFFQSWRYVNISLLLFFYSSSIFSPSFPFIYYFTVFFLSFLLL | 29900 |
| MPYKKGHFVWILVYAIAVQSGNVMKKRVGVVTLVLKMPSRKILPPWSTLVCKT | 47300 |
| LLLRSFKTFQLWTGDQCLEYLGDKFRVVLGLPDDWTNKDLGYWLLSKLVLVHL | 73000 |
| SNKRNKDENRGRSRTRSASRGRSRSASVFSDARSRSRARSRSRAATMAKAGAA | 36300 |
| MQVISYIFFCHVKYLFFVYSLHVVSNTNLSSYMLFNWLYLILLRLFVYIIYFI | 71300 |
| WFAKFVVRLVYCLAWVRGQLLRRSSPIQTMMLALRCPHVLPWIDAGTPRLYIY | 54700 |
| RTSRHLTLLFWSPLLFFSILLLLPIFLPLFLRFLLLWFPILLLLPLLCFLLLW | 13000 |
| PSPFPPSLSPPLFPPFPPLPLCPPFLPLFPPSPLSPPFLPLFPPLFLPLSFPP | 50200 |
| MPEETVTEPRKKRAKIMSACSECRRKKTKCNGEQPCRNCQKSSVQCVYPAATQ | 36500 |
| LGFLYDLIPFFFCCLPFLPFLAPPLKKHLALFQFHPLLHLPLLLPFFFLYFRP | 50200 |
| MWCTRWYIPLLLLPIPTAPPYFLILFLFSLTLHARPCFYCILLLLTLFLSSCY | 58500 |
| LESTHSLLALLNFIAFLCDGRFRTIADRLLNVRLIPSRRLVKRDVSYEFMNRQ | 46300 |
| MIMYKIYFYTHFRLFFYICFYVHVEFSKPILLHVVLKLIKQLVFLSTYHLFLL | 47900 |

| Sequence | transcriptional activation domain activity |
| --- | --- |
| YLFLFYLTILVWFGLFYFIQFFFYLSFHFLFCFVLLLFFTFVFWGVFIFCFFF | 45500 |
| LMVDEPFEHRLFFLLLFQEGNVCQAQSFQLSGFECMCMVSSQFFFLVWVLYFM | 45600 |
| LLNIGNGGVPKNTNVHLGAQFFYLSFLEFILSCLTLCSRSWAWFHVVCVVHLR | 62300 |
| MLSLIFLFMIPYIHDNIFISYSPITKFMHLFIPFIIITNIFLFYTYFSILLSL | 37600 |
| FAELRRARAGCFFFFFFLFFPFFSFFYFFLLFLFLFLPPFPFLSFPFFSLCVL | 56100 |
| MLCIRYLIYFLLLGESLVGSFLPPFTIYISLFFSSSIPCSTWVSFPLLHHTYL | 35900 |
| MYKSYIFFYLPLLFNCFIMSFFFLYEMPFFYLGRMLHFLLSLISGSWFFFYLF | 50900 |
| STLQLASSFDITVNGPPVLCQGISITACASSSLVVALSWISCMIMLMYFFSLL | 52800 |
| RLFAELFMFSICLFSRVLSYFSVFQLQLINVLMYFLPLMIICGYWAGLLNVAI | 52500 |
| MNPHFLLPSIVSFQFSCFFGCLVVYLSVFFSRFIFILTFPSIYFSSTVFFFVS | 37100 |
| MLLFYILLSFSISSFFVCSLSNMLFFYMHHLIYMLTIFFYLLFNPITPILFFV | 51300 |
| DDEEENKSAPAKKSRAKKTVKKEEDDDDNNAEEAKPAPAKKSRAKKAVKKEED | 57900 |
| GAEAGAAVPGKRRNRRGRRGKKKKPGLANGAANGDGVEREDGENGEGEVPKEE | 52100 |
| TLHFFQPIAKWFGIKKSSKLIRFGEQGHAMAYFAVTSCWGLRVMRQLPTWWYR | 41500 |
| FLHLATLKEKMGNRFRAKQSDISPEINLVLLGVLTLTVRFNPTLVSYVTTLRT | 50600 |
| GGVNWESTRDREAVVIRILSPIVEADGSVYICIWIHPVGIIIVHLIVELKLVH | 42300 |
| FLWGGRHGFVGFCIPLILLFFMLLSCISFCISILHFFFVLSFLLNFFCEFFLR | 36100 |
| TSIFGSNNNNTGSGMFGGNNNTNTGTPFGGGGGFGTNTNTNTAFGSKPFGSST | 17500 |
| LCMELVLHYIYVVAISNSSPDWSAYTPFQLSMLGYFNLHHIWLKLLIPWRFFR | 63800 |
| VLGCAKIGVVLLSLWHMFHFAHYINVSPTEIFCISPVLGSWSWETLCFMMTVV | 49600 |
| MVVLCPYNVLQKRERDAFLLALRRCLFAPINHPVYFSDVVFADIFTSYAKVLG | 44000 |

| Sequence | transcriptional activation domain activity |
| --- | --- |
| SAAAAAGTGAAAAATAGGKTGETQAAGAKKLKLSEEGKGKEKAAAAAAAEDQK | 22100 |
| GLDCDKQHVRECPDFAERGTCATRGCKLPHVIRANRNRKAPAPAAQKSTSTST | 25500 |
| MSIAWLCYSSALCQGLRNTIFPSLNIFLMDPLSEWTARQWLFYLVWLLTIVWK | 52800 |
| LLFFFFFFLLLFFLLFLLLRSRPPSSFSPASIVWPLRAGFGIPLPLFLLFFLP | 20800 |
| GSHQGKEAKKEEGKKEEGKDKKEEEEGKKGGKKGGKKGGKGGKGKKTGETEAS | 38000 |
| EMIMGFFFKNIVWTLTLFWYQIFCQFNGSMMFDYALVTLFNLVFTSLPIMCMG | 52100 |
| PFLTTYPESYVHRAFEFGRVFDYRWTVNWRMIPEKTFVSTWFAHQLLLCHVIA | 56500 |
| GDAPASFHSFCVVRVFMDVCWLGKRLCLKVLNMDPTCPWLMLLLLKATRLHLS | 65300 |
| MFKCRNRYCYGSCVDLLCYLILGLDFLWIFCFLFFKRFFFRFLLSIPFSFFPS | 64600 |
| DVDEAGEARGDSSSLCLSFLSLLLFFLFFLFFLLFRFLHLLHFFLFLLVFHFF | 47600 |
| PKRRLGVAVTWTGLTLLLLLLLLLLPSLIILPSFAACFWYIYWGILRISFFFY | 26100 |
| VPLLDSNFISLNSNPLLYIQNQNPNSNSSVKVSRSQTFEPSKELIDLVFPWLS | 122000 |
| LPNVCLILPVYLRALVLNTLQVDKDQRTLLYESIRGHIVTLRGCKTGSKVIWL | 60800 |
| TGNSVWAFHALLSKGYFHMLCKDIDINPERVLATLMLVLSHIFERQLCKHSDI | 48500 |
| KSSKEKDTASVKRGSVESDDTPAAAAAATKGKQLSKDGDADDDSDESDEEKEQ | 33700 |
| TMSTVMVVGSDDKKVKEVGEALKSKLGVKGGGKGSRWSGKFTGVWKDSREGAL | 27000 |
| MDEEVEERNKAFEWTSYSWGKMQIIRYWSRCHAIVVLYTSKRRMWLLVCWLSA | 60400 |
| GASYVIFCLRYYYKGKRRRLTNRLVAYKRALLLVQFVFTHHKWPSYIVILESY | 46200 |
| MSGIFSLSHLLVFRFFFFSIMRFLLVFLYFLFLTITIPHSLSLSLHLFHLFVS | 52600 |
